Assay results published in PMC5030355.

System: RIG-I (recombinant)
Test: filter binding
Details: 25 mM Tris-HCl pH 7.5, 150 mM NaCl, 1.5 mM MgCl2, room temperature, filter binding with 600 nM BSA, 30 min, pull-down in lysate with 0.5% Triton X-100

Work on polyU/UC RNA pseudouridine yielded a Kd (pseudouridine substituted for U) of 255 nM.

For polyU/UC RNA 2'FdU, the Kd (2'-fluoro-deoxyuridine substituted for U) was 29 nM.

In the case of polyU/UC RNA canonical, the Kd is reported as 186 nM.

For polyU/UC RNA m6A, the Kd (N6-methyladenosine substituted for A) was > 1070 nM.
